In this assay the target is C-CA (W184A/M185A) (HIV-1) (UniProt P04591). The experiment in a line: NMR, slow exchange kinetics of binding.

As usually defined, the Kd is the equilibrium constant for the complex coming apart. A lower Kd goes with higher affinity.

NYAD-1 (peptide): the dissociation constant Kd is less than 10 µM.
